Experiment [1] has as its target T (control protein of the yeast two-hybrid kit, pGBKT7-T as printed). Kind of experiment: two-hybrid; quantitative β-gal assay of mated yeast cells with ONPG as substrate, Miller's units from OD420, in triplicate; product in test samples almost 20 h after substrate addition.
In experiment [2] the target is GmZPR3d (soybean (Glycine max)). The description is as above.

Consider “53 (positive control protein of the yeast two-hybrid kit, pGADT7-53 as printed) (domain or fragment)”, for which, in experiment [1], the fold β-Gal activity against any of the experimental pairs stood at 14 fold.

In turn, GmHD-ZIP III-2 (natural protein) had a fold β-Gal activity against GmHD-ZIP III-2::ZPR3b and GmHD-ZIP III-2::ZPR3c in experiment [2] of 7 fold.

The values above are taken from publication PMC6412583.
